System: F1*sub RNA substrate (template-directed ligation)
Assay: fraction ligated after 30 min (ligated reads / total reads); higher = more ligase activity; sequences stand for … in GAGACCGCAACTGAAAAGTTGT…AGTTCTGCACGTAGAAGCAAAAGGC
Conditions: 42 °C
Summary of the method: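 Oligo-pool templates underwent PCR amplification, T7 transcription and gel purification to yield ribozyme variants. Gel-separated ligated and unligated bands were converted to complementary DNA with barcoded primers and sequenced on a MiSeq, keeping core bases of quality ≥20. The ratio of ligated reads to total reads gave the fraction ligated for every variant.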

| Sequence | fraction ligated |
| --- | --- |
| TATCATTTCTAAGACACTTTGGATGGGTTGA [3d1141] | 0.786 |
| TATCATTTGTAAGACACTTTGGATGGGTTGA [3d1140] | 0.803 |
| TATCCGTCGTAAGACACTTTGGATGGGTTGA [3d949] | 0.798 |
| TATCCTGCGTAAGACACTTTGGATGGGTTGA [3d951] | 0.786 |
| TATCCTGTCGAAGACACTTTGGATGGGTTGA [3d954] | 0.786 |
| TATCCTGTCGTAAACACTTTGGATGGGTTGA [3d956] | 0.796 |
| TATCCTGTCGTAAGAACTTTGGATGGGTTGA [3d958] | 0.803 |
| TATCCTGTCGTAAGACACTTGGATGGGTTGA [3d961] | 0.794 |
| TATCCTGTCGTAAGACACTTTGATGGGTTGA [3d962] | 0.754 |
| TATCCTGTCGTAAGACACTTTGGAGGGTTGA [3d964] | 0.0143 |
| TATCCTGTCGTAAGACACTTTGGATGGGTTA [3d966] | 0.436 |
| TATCCTGTCGTAAGACACTTTGGATGGGTTG [3d967] | 0.76 |
| TATCCTGTCGTAAGACACTTTGGATGGGTTGA [2d90] | 0.788 |
| TATCCTGTCGTAAGACACTTTGGATGGTTGA [3d965] | 0.038 |
| TATCCTGTCGTAAGACACTTTGGTGGGTTGA [3d963] | 0.274 |
| TATCCTGTCGTAAGACATTTGGATGGGTTGA [3d960] | 0.766 |
| TATCCTGTCGTAAGACCTTTGGATGGGTTGA [3d959] | 0.772 |
| TATCCTGTCGTAAGCACTTTGGATGGGTTGA [3d957] | 0.783 |
| TATCCTGTCGTAGACACTTTGGATGGGTTGA [3d955] | 0.779 |
| TATCCTGTCTAAGACACTTTGGATGGGTTGA [3d953] | 0.785 |
| TATCCTGTGTAAGACACTTTGGATGGGTTGA [3d952] | 0.791 |
| TATCCTTCGTAAGACACTTTGGATGGGTTGA [3d950] | 0.798 |
| TATCCTTGCGAAGACACTTTGGATGGGTTGA [3d986] | 0.806 |

| Sequence | fraction ligated |
| --- | --- |
| TATCCTTGCGTAAACACTTTGGATGGGTTGA [3d988] | 0.807 |
| TATCCTTGCGTAAGAACTTTGGATGGGTTGA [3d990] | 0.832 |
| TATCCTTGCGTAAGACACTTGGATGGGTTGA [3d993] | 0.75 |
| TATCCTTGCGTAAGACACTTTGATGGGTTGA [3d994] | 0.815 |
| TATCCTTGCGTAAGACACTTTGGAGGGTTGA [3d996] | 0.0215 |
| TATCCTTGCGTAAGACACTTTGGATGGGTTA [3d998] | 0.403 |
| TATCCTTGCGTAAGACACTTTGGATGGGTTG [3d999] | 0.791 |
| TATCCTTGCGTAAGACACTTTGGATGGGTTGA [2d92] | 0.803 |
| TATCCTTGCGTAAGACACTTTGGATGGTTGA [3d997] | 0.0475 |
| TATCCTTGCGTAAGACACTTTGGTGGGTTGA [3d995] | 0.131 |
| TATCCTTGCGTAAGACATTTGGATGGGTTGA [3d992] | 0.792 |
| TATCCTTGCGTAAGACCTTTGGATGGGTTGA [3d991] | 0.792 |
| TATCCTTGCGTAAGCACTTTGGATGGGTTGA [3d989] | 0.775 |
| TATCCTTGCGTAGACACTTTGGATGGGTTGA [3d987] | 0.799 |
| TATCCTTGCTAAGACACTTTGGATGGGTTGA [3d985] | 0.764 |
| TATCCTTGGTAAGACACTTTGGATGGGTTGA [3d984] | 0.796 |
| TATCCTTGTCAAGACACTTTGGATGGGTTGA [3d1015] | 0.791 |
| TATCCTTGTCGAAACACTTTGGATGGGTTGA [3d1030] | 0.81 |
| TATCCTTGTCGAAGAACTTTGGATGGGTTGA [3d1032] | 0.772 |
| TATCCTTGTCGAAGACACTTGGATGGGTTGA [3d1035] | 0.775 |
| TATCCTTGTCGAAGACACTTTGATGGGTTGA [3d1036] | 0.781 |
| TATCCTTGTCGAAGACACTTTGGAGGGTTGA [3d1038] | 0.016 |
| TATCCTTGTCGAAGACACTTTGGATGGGTTA [3d1040] | 0.404 |

| Sequence | fraction ligated |
| --- | --- |
| TATCCTTGTCGAAGACACTTTGGATGGGTTG [3d1041] | 0.783 |
| TATCCTTGTCGAAGACACTTTGGATGGGTTGA [2d95] | 0.806 |
| TATCCTTGTCGAAGACACTTTGGATGGTTGA [3d1039] | 0.0395 |
| TATCCTTGTCGAAGACACTTTGGTGGGTTGA [3d1037] | 0.181 |
| TATCCTTGTCGAAGACATTTGGATGGGTTGA [3d1034] | 0.79 |
| TATCCTTGTCGAAGACCTTTGGATGGGTTGA [3d1033] | 0.747 |
| TATCCTTGTCGAAGCACTTTGGATGGGTTGA [3d1031] | 0.775 |
| TATCCTTGTCGAGACACTTTGGATGGGTTGA [3d1029] | 0.793 |
| TATCCTTGTCGTAAAACTTTGGATGGGTTGA [3d1055] | 0.792 |
| TATCCTTGTCGTAAACACTTGGATGGGTTGA [3d1058] | 0.721 |
| TATCCTTGTCGTAAACACTTTGATGGGTTGA [3d1059] | 0.758 |
| TATCCTTGTCGTAAACACTTTGGAGGGTTGA [3d1061] | 0.0122 |
| TATCCTTGTCGTAAACACTTTGGATGGGTTA [3d1063] | 0.416 |
| TATCCTTGTCGTAAACACTTTGGATGGGTTG [3d1064] | 0.805 |
| TATCCTTGTCGTAAACACTTTGGATGGTTGA [3d1062] | 0.0319 |
| TATCCTTGTCGTAAACACTTTGGTGGGTTGA [3d1060] | 0.0666 |
| TATCCTTGTCGTAAACATTTGGATGGGTTGA [3d1057] | 0.771 |
| TATCCTTGTCGTAAACCTTTGGATGGGTTGA [3d1056] | 0.766 |
| TATCCTTGTCGTAACACTTTGGATGGGTTGA [3d1043] | 0.81 |
| TATCCTTGTCGTAAGAACTTGGATGGGTTGA [3d1076] | 0.591 |
| TATCCTTGTCGTAAGAACTTTGATGGGTTGA [3d1077] | 0.8 |
| TATCCTTGTCGTAAGAACTTTGGAGGGTTGA [3d1079] | 0.00912 |
| TATCCTTGTCGTAAGAACTTTGGATGGGTTA [3d1081] | 0.351 |

| Sequence | fraction ligated |
| --- | --- |
| TATCCTTGTCGTAAGAACTTTGGATGGGTTG [3d1082] | 0.779 |
| TATCCTTGTCGTAAGAACTTTGGATGGTTGA [3d1080] | 0.0325 |
| TATCCTTGTCGTAAGAACTTTGGTGGGTTGA [3d1078] | 0.0718 |
| TATCCTTGTCGTAAGAATTTGGATGGGTTGA [3d1075] | 0.79 |
| TATCCTTGTCGTAAGACACTGGATGGGTTGA [3d1097] | 0.756 |
| TATCCTTGTCGTAAGACACTTGATGGGTTGA [3d1098] | 0.745 |
| TATCCTTGTCGTAAGACACTTGGAGGGTTGA [3d1100] | 0.00692 |
| TATCCTTGTCGTAAGACACTTGGATGGGTTA [3d1102] | 0.402 |
| TATCCTTGTCGTAAGACACTTGGATGGGTTG [3d1103] | 0.742 |
| TATCCTTGTCGTAAGACACTTGGATGGTTGA [3d1101] | 0.0445 |
| TATCCTTGTCGTAAGACACTTGGTGGGTTGA [3d1099] | 0.265 |
| TATCCTTGTCGTAAGACACTTTATGGGTTGA [3d1104] | 0.0278 |
| TATCCTTGTCGTAAGACACTTTGAGGGTTGA [3d1106] | 0.0265 |
| TATCCTTGTCGTAAGACACTTTGATGGGTTA [3d1108] | 0.644 |
| TATCCTTGTCGTAAGACACTTTGATGGGTTG [3d1109] | 0.749 |
| TATCCTTGTCGTAAGACACTTTGATGGTTGA [3d1107] | 0.054 |
| TATCCTTGTCGTAAGACACTTTGGAGGGTTA [3d1115] | 0.00568 |
| TATCCTTGTCGTAAGACACTTTGGAGGGTTG [3d1116] | 0.00286 |
| TATCCTTGTCGTAAGACACTTTGGAGGTTGA [3d1114] | 0.00283 |
| TATCCTTGTCGTAAGACACTTTGGATGGGTT [3d1119] | 0.0366 |
| TATCCTTGTCGTAAGACACTTTGGATGGGTTA [2d107] | 0.401 |
| TATCCTTGTCGTAAGACACTTTGGATGGGTTG [2d108] | 0.781 |
| TATCCTTGTCGTAAGACACTTTGGATGGGTTGA [1d5] | 0.789 |

| Sequence | fraction ligated |
| --- | --- |
| TATCCTTGTCGTAAGACACTTTGGATGGTTA [3d1117] | 0.0143 |
| TATCCTTGTCGTAAGACACTTTGGATGGTTG [3d1118] | 0.0169 |
| TATCCTTGTCGTAAGACACTTTGGATGGTTGA [2d106] | 0.0489 |
| TATCCTTGTCGTAAGACACTTTGGGGGTTGA [3d1110] | 0.0067 |
| TATCCTTGTCGTAAGACACTTTGGTGGGTTA [3d1112] | 0.0152 |
| TATCCTTGTCGTAAGACACTTTGGTGGGTTG [3d1113] | 0.0948 |
| TATCCTTGTCGTAAGACACTTTGGTGGTTGA [3d1111] | 0.0166 |
| TATCCTTGTCGTAAGACACTTTGTGGGTTGA [3d1105] | 0.0549 |
| TATCCTTGTCGTAAGACATTGGATGGGTTGA [3d1090] | 0.772 |
| TATCCTTGTCGTAAGACATTTGATGGGTTGA [3d1091] | 0.775 |
| TATCCTTGTCGTAAGACATTTGGAGGGTTGA [3d1093] | 0.0135 |
| TATCCTTGTCGTAAGACATTTGGATGGGTTA [3d1095] | 0.455 |
| TATCCTTGTCGTAAGACATTTGGATGGGTTG [3d1096] | 0.772 |
| TATCCTTGTCGTAAGACATTTGGATGGTTGA [3d1094] | 0.0378 |
| TATCCTTGTCGTAAGACATTTGGTGGGTTGA [3d1092] | 0.237 |
| TATCCTTGTCGTAAGACCTTGGATGGGTTGA [3d1083] | 0.756 |
| TATCCTTGTCGTAAGACCTTTGATGGGTTGA [3d1084] | 0.762 |
| TATCCTTGTCGTAAGACCTTTGGAGGGTTGA [3d1086] | 0.0073 |
| TATCCTTGTCGTAAGACCTTTGGATGGGTTA [3d1088] | 0.347 |
| TATCCTTGTCGTAAGACCTTTGGATGGGTTG [3d1089] | 0.762 |

Reference: the supplement of paper PMC6755084
